Experimental data: patent EP4663654A1 (Hangzhou Sciwind Biosciences Co., Ltd., dated 2025)
Starred links: 1 amine or outer side, 2 acyl side, 3 side chain; linkers in the order of their positions; H or OH if unused. Non-standard residues stand in square brackets, D forms with d. Primed or numbered codes have the meaning given here. *: point of attachment. C20 diacid = O=C(O)CCCCCCCCCCCCCCCCCCC(=O)*; C18 diacid = O=C(O)CCCCCCCCCCCCCCCCC(=O)*; C16 diacid = O=C(O)CCCCCCCCCCCCCCC(=O)*; γGlu = O=C(O)[C@H](CCC(=O)[*:2])N[*:1]; βAsp = O=C(O)[C@H](CC(=O)[*:2])N[*:1]; Hyp = O=C(O)[C@@H]1C[C@@H](O)CN1; Inp′ = not defined here; Trx′ = not defined here; AEEA = NCCOCCOCC(=O)O

T1: human amylin receptor (AMY3) on CHO-K1/Ga15/AMY3 amylin receptor/CRE-luc cells (human, UniProt P30988 25-474; O60896 24-148)
T1 sequence (looked up) 1: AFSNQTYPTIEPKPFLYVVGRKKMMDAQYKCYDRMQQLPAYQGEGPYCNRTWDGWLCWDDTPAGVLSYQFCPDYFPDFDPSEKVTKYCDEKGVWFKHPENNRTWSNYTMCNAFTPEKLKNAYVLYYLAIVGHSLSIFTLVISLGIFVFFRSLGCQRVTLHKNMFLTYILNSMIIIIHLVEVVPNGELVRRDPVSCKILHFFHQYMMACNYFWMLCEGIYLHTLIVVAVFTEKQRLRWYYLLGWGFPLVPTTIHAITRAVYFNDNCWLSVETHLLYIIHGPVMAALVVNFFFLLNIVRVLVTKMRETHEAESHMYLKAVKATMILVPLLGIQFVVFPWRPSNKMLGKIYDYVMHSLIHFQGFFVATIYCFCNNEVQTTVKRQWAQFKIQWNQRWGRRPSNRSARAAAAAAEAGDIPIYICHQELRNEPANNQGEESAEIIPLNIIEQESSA
T1 sequence (looked up) 2: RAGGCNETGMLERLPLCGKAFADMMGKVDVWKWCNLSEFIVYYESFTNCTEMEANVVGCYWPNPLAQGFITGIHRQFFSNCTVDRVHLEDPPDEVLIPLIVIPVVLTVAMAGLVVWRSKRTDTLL


Molecular target: T1, human amylin receptor (AMY3) on …
Assay: cell-based or functional assay

Binder	EC50/nM, CRE-luciferase reporter in amylin receptor/CRE-luc CHO cells [nM]	Relative activity (the EC50 ratio of Cagrilintide to the compound) [%]
{C18 diacid-γGlu}-ASQLSTAATQRLADFLRHFTDRDRDILPPTNVGSNTP-NH2 (SMILES CC[C@H](C)[C@H](NC(=O)[C@H](CC(=O)O)NC(=O)[C@H](CCCNC(=N)N)NC(=O)[C@H](CC(=O)O)NC(=O)[C@H](CCCNC(=N)N)NC(=O)[C@H](CC(=O)O)NC(=O)[C@@H](NC(=O)[C@H](Cc1ccccc1)NC(=O)[C@H](Cc1c[nH]cn1)NC(=O)[C@H](CCCNC(=N)N)NC(=O)[C@H](CC(C)C)NC(=O)[C@H](Cc1ccccc1)NC(=O)[C@H](CC(=O)O)NC(=O)[C@H](C)NC(=O)[C@H](CC(C)C)NC(=O)[C@H](CCCNC(=N)N)NC(=O)[C@H](CCC(N)=O)NC(=O)[C@@H](NC(=O)[C@H](C)NC(=O)[C@H](C)NC(=O)[C@@H](NC(=O)[C@H](CO)NC(=O)[C@H](CC(C)C)NC(=O)[C@H](CCC(N)=O)NC(=O)[C@H](CO)NC(=O)[C@H](C)NC(=O)CC[C@H](NC(=O)CCCCCCCCCCCCCCCCC(=O)O)C(=O)O)[C@@H](C)O)[C@@H](C)O)[C@@H](C)O)C(=O)N[C@@H](CC(C)C)C(=O)N1CCC[C@H]1C(=O)N1CCC[C@H]1C(=O)N[C@H](C(=O)N[C@@H](CC(N)=O)C(=O)N[C@H](C(=O)NCC(=O)N[C@@H](CO)C(=O)N[C@@H](CC(N)=O)C(=O)N[C@H](C(=O)N1CCC[C@H]1C(N)=O)[C@@H](C)O)C(C)C)[C@@H](C)O) [polypeptide derivative M22]	0.016	198
{C20 diacid-Trx′-AEEA-AEEA}-ASQLSTAATQRLADFLRHFTDRDRDILPPTNVGSNTP-NH2 (reading uncertain) [polypeptide derivative M20]	0.017	171
{C20 diacid-βAsp-AEEA-AEEA}-ASQLSTAATQRLADFLRHFTDRDRDILPPTNVGSNTP-NH2 (SMILES CC[C@H](C)[C@H](NC(=O)[C@H](CC(=O)O)NC(=O)[C@H](CCCNC(=N)N)NC(=O)[C@H](CC(=O)O)NC(=O)[C@H](CCCNC(=N)N)NC(=O)[C@H](CC(=O)O)NC(=O)[C@@H](NC(=O)[C@H](Cc1ccccc1)NC(=O)[C@H](Cc1c[nH]cn1)NC(=O)[C@H](CCCNC(=N)N)NC(=O)[C@H](CC(C)C)NC(=O)[C@H](Cc1ccccc1)NC(=O)[C@H](CC(=O)O)NC(=O)[C@H](C)NC(=O)[C@H](CC(C)C)NC(=O)[C@H](CCCNC(=N)N)NC(=O)[C@H](CCC(N)=O)NC(=O)[C@@H](NC(=O)[C@H](C)NC(=O)[C@H](C)NC(=O)[C@@H](NC(=O)[C@H](CO)NC(=O)[C@H](CC(C)C)NC(=O)[C@H](CCC(N)=O)NC(=O)[C@H](CO)NC(=O)[C@H](C)NC(=O)COCCOCCNC(=O)COCCOCCNC(=O)C[C@H](NC(=O)CCCCCCCCCCCCCCCCCCC(=O)O)C(=O)O)[C@@H](C)O)[C@@H](C)O)[C@@H](C)O)C(=O)N[C@@H](CC(C)C)C(=O)N1CCC[C@H]1C(=O)N1CCC[C@H]1C(=O)N[C@H](C(=O)N[C@@H](CC(N)=O)C(=O)N[C@H](C(=O)NCC(=O)N[C@@H](CO)C(=O)N[C@@H](CC(N)=O)C(=O)N[C@H](C(=O)N1CCC[C@H]1C(N)=O)[C@@H](C)O)C(C)C)[C@@H](C)O) [polypeptide derivative M18]	0.026	110
{C20 diacid}-D[AEEA][AEEA]ASQLSTAATQRLADFLRHFTDRDRDILPPTNVGSNTP-NH2 (SMILES CC[C@H](C)[C@H](NC(=O)[C@H](CC(=O)O)NC(=O)[C@H](CCCNC(=N)N)NC(=O)[C@H](CC(=O)O)NC(=O)[C@H](CCCNC(=N)N)NC(=O)[C@H](CC(=O)O)NC(=O)[C@@H](NC(=O)[C@H](Cc1ccccc1)NC(=O)[C@H](Cc1c[nH]cn1)NC(=O)[C@H](CCCNC(=N)N)NC(=O)[C@H](CC(C)C)NC(=O)[C@H](Cc1ccccc1)NC(=O)[C@H](CC(=O)O)NC(=O)[C@H](C)NC(=O)[C@H](CC(C)C)NC(=O)[C@H](CCCNC(=N)N)NC(=O)[C@H](CCC(N)=O)NC(=O)[C@@H](NC(=O)[C@H](C)NC(=O)[C@H](C)NC(=O)[C@@H](NC(=O)[C@H](CO)NC(=O)[C@H](CC(C)C)NC(=O)[C@H](CCC(N)=O)NC(=O)[C@H](CO)NC(=O)[C@H](C)NC(=O)COCCOCCNC(=O)COCCOCCNC(=O)[C@H](CC(=O)O)NC(=O)CCCCCCCCCCCCCCCCCCC(=O)O)[C@@H](C)O)[C@@H](C)O)[C@@H](C)O)C(=O)N[C@@H](CC(C)C)C(=O)N1CCC[C@H]1C(=O)N1CCC[C@H]1C(=O)N[C@H](C(=O)N[C@@H](CC(N)=O)C(=O)N[C@H](C(=O)NCC(=O)N[C@@H](CO)C(=O)N[C@@H](CC(N)=O)C(=O)N[C@H](C(=O)N1CCC[C@H]1C(N)=O)[C@@H](C)O)C(C)C)[C@@H](C)O) [polypeptide derivative M19]	0.036	80
{C20 diacid-γGlu}-ASQLSTAVLGRLADFLRHSSNNLKPILPPTNVGSNT[Hyp]-NH2 (SMILES CC[C@H](C)[C@H](NC(=O)[C@@H]1CCCN1C(=O)[C@H](CCCCN)NC(=O)[C@H](CC(C)C)NC(=O)[C@H](CC(N)=O)NC(=O)[C@H](CC(N)=O)NC(=O)[C@H](CO)NC(=O)[C@H](CO)NC(=O)[C@H](Cc1c[nH]cn1)NC(=O)[C@H](CCCNC(=N)N)NC(=O)[C@H](CC(C)C)NC(=O)[C@H](Cc1ccccc1)NC(=O)[C@H](CC(=O)O)NC(=O)[C@H](C)NC(=O)[C@H](CC(C)C)NC(=O)[C@H](CCCNC(=N)N)NC(=O)CNC(=O)[C@H](CC(C)C)NC(=O)[C@@H](NC(=O)[C@H](C)NC(=O)[C@@H](NC(=O)[C@H](CO)NC(=O)[C@H](CC(C)C)NC(=O)[C@H](CCC(N)=O)NC(=O)[C@H](CO)NC(=O)[C@H](C)NC(=O)CC[C@H](NC(=O)CCCCCCCCCCCCCCCCCCC(=O)O)C(=O)O)[C@@H](C)O)C(C)C)C(=O)N[C@@H](CC(C)C)C(=O)N1CCC[C@H]1C(=O)N1CCC[C@H]1C(=O)N[C@H](C(=O)N[C@@H](CC(N)=O)C(=O)N[C@H](C(=O)NCC(=O)N[C@@H](CO)C(=O)N[C@@H](CC(N)=O)C(=O)N[C@H](C(=O)N1C[C@H](O)C[C@H]1C(N)=O)[C@@H](C)O)C(C)C)[C@@H](C)O) [polypeptide derivative M2]	0.038	68
{C16 diacid-γGlu}-ASQLSTAATQRLADFLRHFTDRDRDILPPTNVGSNTP-NH2 (SMILES CC[C@H](C)[C@H](NC(=O)[C@H](CC(=O)O)NC(=O)[C@H](CCCNC(=N)N)NC(=O)[C@H](CC(=O)O)NC(=O)[C@H](CCCNC(=N)N)NC(=O)[C@H](CC(=O)O)NC(=O)[C@@H](NC(=O)[C@H](Cc1ccccc1)NC(=O)[C@H](Cc1c[nH]cn1)NC(=O)[C@H](CCCNC(=N)N)NC(=O)[C@H](CC(C)C)NC(=O)[C@H](Cc1ccccc1)NC(=O)[C@H](CC(=O)O)NC(=O)[C@H](C)NC(=O)[C@H](CC(C)C)NC(=O)[C@H](CCCNC(=N)N)NC(=O)[C@H](CCC(N)=O)NC(=O)[C@@H](NC(=O)[C@H](C)NC(=O)[C@H](C)NC(=O)[C@@H](NC(=O)[C@H](CO)NC(=O)[C@H](CC(C)C)NC(=O)[C@H](CCC(N)=O)NC(=O)[C@H](CO)NC(=O)[C@H](C)NC(=O)CC[C@H](NC(=O)CCCCCCCCCCCCCCC(=O)O)C(=O)O)[C@@H](C)O)[C@@H](C)O)[C@@H](C)O)C(=O)N[C@@H](CC(C)C)C(=O)N1CCC[C@H]1C(=O)N1CCC[C@H]1C(=O)N[C@H](C(=O)N[C@@H](CC(N)=O)C(=O)N[C@H](C(=O)NCC(=O)N[C@@H](CO)C(=O)N[C@@H](CC(N)=O)C(=O)N[C@H](C(=O)N1CCC[C@H]1C(N)=O)[C@@H](C)O)C(C)C)[C@@H](C)O) [polypeptide derivative M23]	0.017	182
{C20 diacid}-E[AEEA][AEEA]ASQLSTAATQRLADFLRHFTDRDRDILPPTNVGSNTP-NH2 (SMILES CC[C@H](C)[C@H](NC(=O)[C@H](CC(=O)O)NC(=O)[C@H](CCCNC(=N)N)NC(=O)[C@H](CC(=O)O)NC(=O)[C@H](CCCNC(=N)N)NC(=O)[C@H](CC(=O)O)NC(=O)[C@@H](NC(=O)[C@H](Cc1ccccc1)NC(=O)[C@H](Cc1c[nH]cn1)NC(=O)[C@H](CCCNC(=N)N)NC(=O)[C@H](CC(C)C)NC(=O)[C@H](Cc1ccccc1)NC(=O)[C@H](CC(=O)O)NC(=O)[C@H](C)NC(=O)[C@H](CC(C)C)NC(=O)[C@H](CCCNC(=N)N)NC(=O)[C@H](CCC(N)=O)NC(=O)[C@@H](NC(=O)[C@H](C)NC(=O)[C@H](C)NC(=O)[C@@H](NC(=O)[C@H](CO)NC(=O)[C@H](CC(C)C)NC(=O)[C@H](CCC(N)=O)NC(=O)[C@H](CO)NC(=O)[C@H](C)NC(=O)COCCOCCNC(=O)COCCOCCNC(=O)[C@H](CCC(=O)O)NC(=O)CCCCCCCCCCCCCCCCCCC(=O)O)[C@@H](C)O)[C@@H](C)O)[C@@H](C)O)C(=O)N[C@@H](CC(C)C)C(=O)N1CCC[C@H]1C(=O)N1CCC[C@H]1C(=O)N[C@H](C(=O)N[C@@H](CC(N)=O)C(=O)N[C@H](C(=O)NCC(=O)N[C@@H](CO)C(=O)N[C@@H](CC(N)=O)C(=O)N[C@H](C(=O)N1CCC[C@H]1C(N)=O)[C@@H](C)O)C(C)C)[C@@H](C)O) [polypeptide derivative M17]	0.026	94
{C20 diacid-Inp′-AEEA-AEEA}-ASQLSTAATQRLADFLRHFTDRDRDILPPTNVGSNTP-NH2 [polypeptide derivative M21]	0.023	126
